# Biological target: NGF (target protein of the anti-NGF antibodies mAb2 and mAb3)
# Assay: cell-based or functional assay
# NGF (target protein of the anti-NGF antibodies mAb2 and mAb3), sequence (P01138 122-241): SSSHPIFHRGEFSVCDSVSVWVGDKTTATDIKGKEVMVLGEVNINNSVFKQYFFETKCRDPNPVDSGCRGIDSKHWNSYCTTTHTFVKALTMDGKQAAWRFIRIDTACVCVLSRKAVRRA
binder,measurement,value
"mAb3 (felinized anti-NGF, ZTS-768) IgG1a WT (antibody, V domains shown) VH: DVQLVESGGDLVKPGGSLRLTCVASGFTYSNYWMHWVRQAPGKGLQWVARIDPYGGGTKHNEKFKRRFTISRDNAKNTLYLQMNSLKTEDTATYYCVRSGYDYYFDVWGQGTLVTVSS VL: EIQMTQSPSSLSASPGDRVTITCRASENIYSFLAWYQQKPGKVPKLLIYNANTLAEGVPSRFSGSGSGTDFTLTISSLEPEDAATYYCQHHFGTPFTFGSGTKLEIKR",IC50 (cell based potency assay),0.036 nM
